# From US8674063 (CENTRO DE INGENIERIA GENETICA Y BIOTECNOLOGIA, dated 2014)
# Biological target: NS3pro protease of dengue virus 2 (strain S16803) (dengue virus 2 (strain S16803))
# Test: cell-based or functional assay
binder,measurement,value
YGRKKRRQRRRPPQGGGSSPILSITISEDG [peptide NS2Bden2+TAT (peptide 1 of table 1)],"IC50 of inhibition of DV2 infection, plaque reduction neutralization assay in Vero cells",50 to 60 µM
